Measured values taken from publication PMC4601081, “A Single α Helix Drives Extensive Remodeling of the Proteasome Lid and Completion of Regulatory Particle Assembly” (Cell, 2015).
Each block holds one binder with its values, some of them ahead of it. Ends that are not written are not given here.

Assays:
Conditions in all cases: both partners purified
[1] = target: T1, Rpn3, subunit of LP2 and lid purified from yeast (S. cerevisiae, UniProt P40016 1-523); assay: cross-linking; QCLMS of LP2 purified from yeast as a whole complex: BS3-d0 / BS3-d4 at 1:200 protein to cross-linker, Buffer HA, 30°C 1 h; monomeric cross-linked complex cut from SDS-PAGE, trypsin, LC-MS/MS
T1 construct: Rpn3, S. cerevisiae proteasome lid subunit; source: purified from S. cerevisiae as part of LP2 or lid
T1 sequence (looked up): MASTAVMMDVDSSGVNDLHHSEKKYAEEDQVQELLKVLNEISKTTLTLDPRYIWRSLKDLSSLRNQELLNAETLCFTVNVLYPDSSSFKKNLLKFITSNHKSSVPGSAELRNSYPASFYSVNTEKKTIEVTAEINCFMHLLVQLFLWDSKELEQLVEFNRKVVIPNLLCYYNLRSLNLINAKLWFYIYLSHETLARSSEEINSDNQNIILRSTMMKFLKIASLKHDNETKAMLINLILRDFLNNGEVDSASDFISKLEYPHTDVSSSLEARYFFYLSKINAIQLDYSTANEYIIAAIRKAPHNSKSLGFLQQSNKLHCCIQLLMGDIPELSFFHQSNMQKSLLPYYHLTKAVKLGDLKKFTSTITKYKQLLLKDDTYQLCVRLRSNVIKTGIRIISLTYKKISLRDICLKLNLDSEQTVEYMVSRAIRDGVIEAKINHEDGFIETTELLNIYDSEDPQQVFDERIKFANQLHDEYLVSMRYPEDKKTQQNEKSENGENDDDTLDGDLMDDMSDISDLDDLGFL

[2] = target: T2, Rpn5, subunit of LP2 and lid purified from yeast (S. cerevisiae, UniProt Q12250 1-445); assay: as above
T2 construct: Rpn5, S. cerevisiae proteasome lid subunit; source: purified from S. cerevisiae as part of LP2 or lid
T2 sequence (looked up): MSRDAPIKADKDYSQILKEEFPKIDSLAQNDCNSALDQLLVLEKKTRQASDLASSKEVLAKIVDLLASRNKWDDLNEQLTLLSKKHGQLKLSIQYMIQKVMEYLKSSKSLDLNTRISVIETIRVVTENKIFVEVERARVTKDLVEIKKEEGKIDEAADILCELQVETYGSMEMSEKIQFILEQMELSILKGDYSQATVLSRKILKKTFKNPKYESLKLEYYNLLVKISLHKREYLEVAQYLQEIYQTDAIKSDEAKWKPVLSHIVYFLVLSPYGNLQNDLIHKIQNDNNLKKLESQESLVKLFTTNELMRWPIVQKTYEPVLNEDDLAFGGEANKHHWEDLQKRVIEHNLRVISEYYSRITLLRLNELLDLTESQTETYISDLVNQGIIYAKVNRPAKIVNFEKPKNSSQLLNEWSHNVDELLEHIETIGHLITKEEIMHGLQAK

[3] = target: T3, Rpn8, subunit of LP2 and lid purified from yeast (S. cerevisiae, UniProt Q08723 1-338); assay: as above
T3 construct: Rpn8, S. cerevisiae proteasome lid subunit; source: purified from S. cerevisiae as part of LP2 or lid
T3 sequence (looked up): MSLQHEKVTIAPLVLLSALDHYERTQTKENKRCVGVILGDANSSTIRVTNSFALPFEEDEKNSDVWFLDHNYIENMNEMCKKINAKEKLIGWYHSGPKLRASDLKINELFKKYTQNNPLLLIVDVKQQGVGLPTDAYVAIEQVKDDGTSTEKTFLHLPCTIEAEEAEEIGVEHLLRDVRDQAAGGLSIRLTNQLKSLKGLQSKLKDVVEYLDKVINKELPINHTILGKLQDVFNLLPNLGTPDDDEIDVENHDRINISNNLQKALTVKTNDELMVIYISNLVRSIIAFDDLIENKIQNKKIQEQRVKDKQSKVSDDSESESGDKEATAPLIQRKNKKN

[4] = target: T4, lid particle 2 (LP2), recombinant (S. cerevisiae, UniProt P40016 1-523; Q12250 1-445; Q12377 1-434; Q06103 1-429; Q08723 1-338; Q04062 …); assay: negative-stain EM; purified recombinant LP2 treated with an equimolar concentration of recombinant Rpn12; 2D class averages
T4 construct: Rpn3, S. cerevisiae proteasome lid subunit; Rpn5, S. cerevisiae proteasome lid subunit; Rpn6, S. cerevisiae proteasome lid subunit; Rpn7, S. cerevisiae proteasome lid subunit; Rpn8, S. cerevisiae proteasome lid subunit; Rpn9, S. cerevisiae proteasome lid subunit; Rpn11, S. cerevisiae proteasome lid subunit; Sem1, S. cerevisiae proteasome lid subunit; legends speak of 'untagged LP2'; operons as in …

[5] = target: T4, lid particle 2 (LP2), recombinant; assay: fluorescence polarisation; fluorescence anisotropy: 1 uM fluorescein-labelled N12pep in Lid Buffer alone, with 1 uM LP2, 5 uM Rpn12, or both; 25°C 20 min; excitation 485 nm, emission 513-528 nm

T4 sequence (Q12377 whole entry, chain 3 of 3): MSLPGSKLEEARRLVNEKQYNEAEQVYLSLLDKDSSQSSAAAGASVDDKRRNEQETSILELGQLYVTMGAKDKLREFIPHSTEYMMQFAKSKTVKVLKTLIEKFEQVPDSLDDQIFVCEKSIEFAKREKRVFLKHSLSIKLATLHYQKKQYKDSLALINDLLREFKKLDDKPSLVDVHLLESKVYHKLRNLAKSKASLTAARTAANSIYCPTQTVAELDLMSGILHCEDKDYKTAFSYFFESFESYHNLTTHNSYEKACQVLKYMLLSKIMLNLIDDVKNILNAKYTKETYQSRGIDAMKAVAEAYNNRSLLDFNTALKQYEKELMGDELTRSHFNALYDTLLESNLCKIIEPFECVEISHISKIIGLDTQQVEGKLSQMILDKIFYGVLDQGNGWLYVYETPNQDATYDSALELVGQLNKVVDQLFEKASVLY
T4 sequence (Q04062 whole entry, chain 6 of 3): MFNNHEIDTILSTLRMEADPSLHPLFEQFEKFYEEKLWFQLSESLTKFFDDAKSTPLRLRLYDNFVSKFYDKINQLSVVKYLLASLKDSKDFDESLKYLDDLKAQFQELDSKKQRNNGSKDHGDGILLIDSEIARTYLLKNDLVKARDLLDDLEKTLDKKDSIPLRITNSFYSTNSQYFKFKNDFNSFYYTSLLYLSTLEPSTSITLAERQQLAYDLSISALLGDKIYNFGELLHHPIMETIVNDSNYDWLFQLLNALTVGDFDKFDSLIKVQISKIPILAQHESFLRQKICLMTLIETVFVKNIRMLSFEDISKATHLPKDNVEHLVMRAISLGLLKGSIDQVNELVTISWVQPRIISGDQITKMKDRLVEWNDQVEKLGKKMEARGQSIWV
T4 sequence (O94742 whole entry, chain 8 of 3, further chain): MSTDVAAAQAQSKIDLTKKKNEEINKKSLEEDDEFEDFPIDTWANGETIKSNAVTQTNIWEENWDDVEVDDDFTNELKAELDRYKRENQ

binding result [4]: binds
B3: Rpn12, recombinant, full-length (natural protein, S. cerevisiae, UniProt P32496 1-274, looked up)
chain: MPSLAELTKSLSIAFENGDYAACEKLLPPIKIELIKNNLLIPDLSIQNDIYLNDLMITKRILEVGALASIQTFNFDSFENYFNQLKPYYFSNNHKLSESDKKSKLISLYLLNLLSQNNTTKFHSELQYLDKHIKNLEDDSLLSYPIKLDRWLMEGSYQKAWDLLQSGSQNISEFDSFTDILKSAIRDEIAKNTELSYDFLPLSNIKALLFFNNEKETEKFALERNWPIVNSKVYFNNQSKEKADYEDEMMHEEDQKTNIIEKAMDYAISIENIV
notes: Rpn12, S. cerevisiae proteasome lid subunit; also called recombinant Rpn12; purified Rpn12

binding result [5]: binds
B4: N12pep, fluorescently labeled peptide of the Rpn12 C-terminal helix (peptide)
peptide: DQKTNIIEKAMDYAISIENIK(5,6‑carboxyfluorescein)
notes: Rpn12, S. cerevisiae, C-terminal helix; added lysine that carries 5,6-carboxyfluorescein; also called Rpn12 C-terminal helix peptide; source: synthetic peptide (Elim Biopharmaceuticals)

The remaining lines, values behind:

B1: Rpn7, subunit of LP2 and lid purified from yeast (natural protein, S. cerevisiae, UniProt Q06103 1-429, looked up)
chain: MVDVEEKSQEVEYVDPTVNRVPNYEVSEKAFLLTQSKVSIEQRKEAAEFVLAKIKEEEMAPYYKYLCEEYLVNNGQSDLEHDEKSDSLNEWIKFDQELYNELCKKNESKIKELNEKIQKLEEDDEGELEQAQAWINLGEYYAQIGDKDNAEKTLGKSLSKAISTGAKIDVMLTIARLGFFYNDQLYVKEKLEAVNSMIEKGGDWERRNRYKTYYGIHCLAVRNFKEAAKLLVDSLATFTSIELTSYESIATYASVTGLFTLERTDLKSKVIDSPELLSLISTTAALQSISSLTISLYASDYASYFPYLLETYANVLIPCKYLNRHADFFVREMRRKVYAQLLESYKTLSLKSMASAFGVSVAFLDNDLGKFIPNKQLNCVIDRVNGIVETNRPDNKNAQYHLLVKQGDGLLTKLQKYGAAVRLTGSDRV
notes: Rpn7, S. cerevisiae proteasome lid subunit; source: purified from S. cerevisiae as part of LP2 or lid
binding result [1]: binds

B2: Rpn11, subunit of LP2 and lid purified from yeast (natural protein, S. cerevisiae, UniProt P43588 1-306, looked up)
chain: MERLQRLMMNSKVGSADTGRDDTKETVYISSIALLKMLKHGRAGVPMEVMGLMLGEFVDDYTVNVVDVFAMPQSGTGVSVEAVDDVFQAKMMDMLKQTGRDQMVVGWYHSHPGFGCWLSSVDVNTQKSFEQLNSRAVAVVVDPIQSVKGKVVIDAFRLIDTGALINNLEPRQTTSNTGLLNKANIQALIHGLNRHYYSLNIDYHKTAKETKMLMNLHKEQWQSGLKMYDYEEKEESNLAATKSMVKIAEQYSKRIEEEKELTEEELKTRYVGRQDPKKHLSETADETLENNIVSVLTAGVNSVAIK
notes: Rpn11, S. cerevisiae proteasome lid subunit; source: purified from S. cerevisiae as part of LP2 or lid
binding result [2]: binds
binding result [3]: binds
